How the values were obtained:
[1] = target: human ACVR1 extracellular domain expressed with a C-terminal mouse IgG2a Fc tag (human); assay: SPR (Biacore), mAb captured, 25 C
[2] = target: human ACVR1 extracellular domain expressed with a C-terminal mouse IgG2a Fc tag (human); assay: SPR (Biacore), mAb captured, 37 C
[3] = target: mouse ACVR1 extracellular domain expressed with a C-terminal myc-myc-hexahistidine tag (mouse); assay: SPR (Biacore), mAb captured, 25 C
[4] = target: mouse ACVR1 extracellular domain expressed with a C-terminal myc-myc-hexahistidine tag (mouse); assay: SPR (Biacore), mAb captured, 37 C

Sequence of mouse ACVR1 extracellular domain expressed with a C-terminal myc-myc-hexahistidine tag (mouse) (chain, as listed by the source limits assumed): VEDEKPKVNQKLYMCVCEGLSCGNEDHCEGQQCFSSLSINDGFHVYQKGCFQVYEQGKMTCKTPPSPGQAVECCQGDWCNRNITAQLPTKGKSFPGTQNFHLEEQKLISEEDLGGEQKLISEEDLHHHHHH
Sequence of human ACVR1 extracellular domain expressed with a C-terminal mouse IgG2a Fc tag (human) (chain, as listed by the source limits assumed): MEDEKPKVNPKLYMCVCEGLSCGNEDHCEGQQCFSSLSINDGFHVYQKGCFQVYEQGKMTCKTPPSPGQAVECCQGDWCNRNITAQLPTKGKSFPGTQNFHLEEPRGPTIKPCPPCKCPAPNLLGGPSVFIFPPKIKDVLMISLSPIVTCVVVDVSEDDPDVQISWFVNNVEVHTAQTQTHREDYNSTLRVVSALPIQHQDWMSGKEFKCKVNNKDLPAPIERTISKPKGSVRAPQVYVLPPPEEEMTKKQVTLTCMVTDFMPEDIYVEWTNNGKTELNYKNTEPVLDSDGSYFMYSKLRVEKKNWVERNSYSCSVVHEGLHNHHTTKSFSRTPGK

| 100 nM Ag Bound (RU) [1] [RU] | 100 nM Ag Bound (RU) [2] [RU] | 900 nM or 100 nM Ag Bound (RU) [3] [RU] | 900 nM or 100 nM Ag Bound (RU) [4] [RU] | Binder |
| --- | --- | --- | --- | --- |
| 0 | 11 |  |  | mAb29261 (antibody, human IgG4 S228P, kappa, V domains shown) VH: EVQLVESGGNLVQPGGSLRLSCAASGFTFSNYAMSWVRQAPGKGLEWVSGITGNGINTYYSVSVKGRFTISRDNSKNTVFLQMNSLRAEDTAIYYCVKERGHSWFGDWFDPWGQGTLVTVSS VL: DIQMTQSPSSLSASVGDRVTITCRASQGIRNDLGWYQQKPGKAPKRLIYAASSLQSGVPSRFSGSGSGTEFTLTISSLQPEDFATYYCLQHNSYPWTFGQGTKVEIKR |
|  |  | 5 | 5 | mAb29266 (antibody, human IgG4 S228P, kappa, V domains shown) VH: QVQLVESGGGVVQPGRSLRLSCEVSGFTFSNYGMHWVRQAPGKGLEWVAVVSYDGSNKYYTDSVKGRFTISRDNSKNTLSLQMNSLRAEDTAVYYCAKDRGITGTSGGVFDIWGQGTMVTVSS VL: AIRMTQSPSSFSATTGDRVTITCRASQGISSHLAWYQQKPGKAPKFLIYVASTLQSGVPSRFSGSGSGTDFTLTISSLQSEDFATYYCQQYYSYPPTFGQGTKVEIKR |

Reference: patent US20210253716A1
